Measured values taken from patent US20260209352A1 (Adimab, published 2026).

Key:
Human CD3εδ-Fc (human) [1] = target: Human CD3εδ-Fc (human) (UniProt P04234); test: KD of scFv-Fc or IgG on human CD3εδ-Fc; instrument not given; second row for this clone
[2] = target: Cyno CD3εδ-Fc (cynomolgus) (UniProt Q95LI8); test: KD of scFv-Fc or IgG on cyno CD3εδ-Fc; instrument not given
[3] = target: T1, Cynomolgus CD3 on Cyno CD3+ Jurkat cells (cynomolgus, UniProt Q95LI5 22-198); test: cell binding cCD3, fold over background
T1 construct: whole, on cells; CD3 on cells; also called cCD3

Human CD3εδ-Fc (human) [4] = target: Human CD3εδ-Fc (human) (UniProt P04234); test: KD of scFv-Fc or IgG on human CD3εδ-Fc; instrument not given
[5] = target: T2, Human CD3 on Human CD3+ Jurkat cells (human, UniProt P07766 23-207); test: cell binding hCD3, fold over background
T2 construct: whole, on cells; CD3 complex on cells; also called hCD3
T2 sequence (P07766 23-207): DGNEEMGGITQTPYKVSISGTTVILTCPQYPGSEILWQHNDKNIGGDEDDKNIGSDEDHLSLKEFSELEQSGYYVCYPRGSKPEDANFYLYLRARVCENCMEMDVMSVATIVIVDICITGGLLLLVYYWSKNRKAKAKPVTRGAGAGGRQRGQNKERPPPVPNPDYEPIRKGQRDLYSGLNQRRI

Chain of Human CD3εδ-Fc (human) (chain, as listed by the source mutant, chain 1 of 2): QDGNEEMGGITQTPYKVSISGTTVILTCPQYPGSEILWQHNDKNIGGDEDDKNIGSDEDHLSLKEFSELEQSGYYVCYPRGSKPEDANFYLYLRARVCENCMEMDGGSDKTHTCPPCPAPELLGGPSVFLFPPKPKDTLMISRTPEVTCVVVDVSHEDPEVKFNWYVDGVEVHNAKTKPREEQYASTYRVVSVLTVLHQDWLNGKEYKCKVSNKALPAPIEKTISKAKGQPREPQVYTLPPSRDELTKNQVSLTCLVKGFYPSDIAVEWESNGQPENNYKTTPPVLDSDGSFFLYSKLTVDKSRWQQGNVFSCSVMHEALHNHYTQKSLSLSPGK
Chain of Human CD3εδ-Fc (human) (P04234 22-105, stated change not applied, chain 2 of 2): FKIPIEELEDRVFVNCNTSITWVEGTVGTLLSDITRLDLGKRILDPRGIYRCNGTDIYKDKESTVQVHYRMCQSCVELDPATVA
Chain of Cyno CD3εδ-Fc (cynomolgus) (chain, as listed by the source mutant, chain 1 of 2): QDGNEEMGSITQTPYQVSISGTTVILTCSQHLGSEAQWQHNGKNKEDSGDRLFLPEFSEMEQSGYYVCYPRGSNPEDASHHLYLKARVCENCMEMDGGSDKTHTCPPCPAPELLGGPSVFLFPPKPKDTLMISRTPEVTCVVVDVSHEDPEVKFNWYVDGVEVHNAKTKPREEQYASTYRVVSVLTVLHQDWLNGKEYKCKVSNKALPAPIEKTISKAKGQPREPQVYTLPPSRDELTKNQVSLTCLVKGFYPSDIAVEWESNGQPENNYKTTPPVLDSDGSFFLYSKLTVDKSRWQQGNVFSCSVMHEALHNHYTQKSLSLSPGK
Chain of Cyno CD3εδ-Fc (cynomolgus) (Q95LI8 22-105, stated change not applied, chain 2 of 2): as the sequence (P04234 22-105, stated change not applied, chain 2 of 2) above, with I5V, N15K, I20V, S32T, D33N, I34N, T64A, S74N, V83L counted along it
T1 sequence (Q95LI5 22-198): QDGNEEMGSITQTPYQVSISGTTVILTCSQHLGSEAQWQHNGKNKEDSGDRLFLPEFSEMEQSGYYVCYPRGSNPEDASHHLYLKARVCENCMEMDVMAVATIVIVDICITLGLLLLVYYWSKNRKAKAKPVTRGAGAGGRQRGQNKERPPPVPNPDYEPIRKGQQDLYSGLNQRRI

B1: ADI-42596 (antibody, V domains shown)
VH: QVQLVQSGAEVKKPGASVKVSCKASGFNIKDYYMHWVRQAPGQRLEWIGWIDLENANTVYDAKFQGRVTITRDTSASTAYMELSSLRSEDTAVYYCARDAYGRYFYDVWGQGTLVTVSS
VL: DIVMTQSPDSLAVSLGERATINCKSSQSLLNARTRKNYLAWYQQKPGQPPKLLIYWASTRESGVPDRFSGSGSGTDFTLTISSLQAEDVAVYYCKQSYFRRTFGGGTKVEIK
notes: also called Ab2
Kd (Human CD3εδ-Fc (human) [1]): 1.1 nM | Kd [2]: 2.4 nM | Cell Binding cCD3 (FOB) [3]: 46 FOB | Kd (Human CD3εδ-Fc (human) [4]): 0.16 nM | Cell Binding hCD3 (FOB) [5]: 29 FOB
